The target of the test is recombinant human Osteolectin (human) (UniProt Q9Y240). Nature of the test: ELISA; microtiter well binding assay; plates coated with 10 nM recombinant human Osteolectin, Pro-Collagen 1α or BSA overnight at 4°C, blocked with 10 mg/ml BSA; 6xHis tagged integrins in TBS (50 mM Tris-Cl pH 7.5, 150 mM NaCl) with 1 mM MnCl2; bound integrin detected with anti-His tag antibody and HRP secondary, OD 450 nm.
Sequence of recombinant human Osteolectin (human) (Q9Y240 22-323): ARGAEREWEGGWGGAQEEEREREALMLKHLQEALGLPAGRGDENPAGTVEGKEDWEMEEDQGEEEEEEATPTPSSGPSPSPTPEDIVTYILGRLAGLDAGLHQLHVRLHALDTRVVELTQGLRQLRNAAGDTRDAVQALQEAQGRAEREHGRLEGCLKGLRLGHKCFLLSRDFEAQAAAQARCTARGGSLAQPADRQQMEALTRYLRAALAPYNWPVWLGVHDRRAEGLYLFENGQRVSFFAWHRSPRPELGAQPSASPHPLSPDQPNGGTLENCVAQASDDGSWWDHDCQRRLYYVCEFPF

What is called Kd is the equilibrium constant for the complex coming apart. On to “recombinant human integrin αIIbβ3 (from UniProt P08514 32-1039; P05106 27-718) (complex)”, for which the Kd was above 100 nM.

Regarding “recombinant human integrin αVβ1 (from UniProt P06756 31-1048; P05556 21-728) (complex)”, the Kd is above 100 nM. The figure for “recombinant human integrin αVβ3 (from UniProt P06756 31-1048; P05106 27-718) (complex)” is above 100 nM.

For the origin of these results see publication PMC6349404.
